Test results published in patent publication US20230118517A1, “METHODS OF TREATING MULTIPLE MYELOMA” (Seagen Inc., priority 2020, published 2023).
Like-named read-outs stand apart in the source and are kept apart here.

What was measured:
[1] = target: T1, membrane BCMA on malignant plasma cells (Homo sapiens, UniProt Q02223); test: Flow cytometric assessment of BCMA expression and engagement on MM cells in bone marrow; assay type: in vivo
T1 construct: from tissue; host or cells: multiple myeloma cells in patients' bone marrow aspirates
T1 sequence (Q02223 1-184): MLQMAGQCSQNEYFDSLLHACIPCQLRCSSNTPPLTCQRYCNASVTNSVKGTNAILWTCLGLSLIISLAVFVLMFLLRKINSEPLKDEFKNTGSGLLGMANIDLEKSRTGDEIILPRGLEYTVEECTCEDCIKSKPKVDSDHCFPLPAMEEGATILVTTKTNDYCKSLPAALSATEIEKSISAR
Description: A Flow Cytometric Assay was designed to identify multiple myeloma cells in patients bone marrow aspirate, and measure levels of BCMA (unbound and total) and APRIL on the MM cell surface.
Bone marrow aspirates were collected from enrolled patients at Baseline and on-treatment (C2D22, confirmation of CR, per standard of care), and tested by flow cytometry with one day of collection in most cases.
MM cells detection was performed using extracellular CD138, CD38, CD45, CD56 and CD28 staining and intracellular kappa and lambda light chains staining. […] Detection of APRIL, most probably bound to BCMA on the MM cell surface, is also performed.
Each sample was split into 3 aliquots: one aliquot stained using only the MM gating antigens but no anti-BCMA or anti-APRIL antibodies (gating control), one aliquot stained with MM Gating antigens and the two labeled anti-BCMA antibodies, and one incubated for 2 hours at 37 C with spiked BCMA (100 ug/mL) before staining with MM gating antigens+APRIL+labeled non-competing anti-BCMA 16.16 antibody. After staining, washing and fixation in 2% paraformaldyde, cells were analyzed on a BD FACScanto cytometer, with up to 2×10^6 leukocytes acquired. Data analysis was performed with FACS Diva (Q2) and FlowJo (Seattle Genetics).

[2] = tested on: relapsed or refractory multiple myeloma (RRMM); test: Clinical antitumor activity (IMWG response, serum free light chain); assay type: in vivo, human
Description: Response assessment included SPEP/immunofixation, UPEP/immunofixation (in patients with a baseline urine M protein ≥200 mg/24 hour or for assessment of VGPR or better), SFLC, quantitative immunoglobulins, and plasmacytoma evaluation by imaging (at baseline, every 4 cycles, and at additional time points if clinically indicated). These samples were collected for local assessment. In addition, blood were analyzed in the central laboratory using a modified SPEP for patients with IgG myeloma.
The determination of antitumor activity were based on response assessments made according to the 2016 IMWG Criteria (Kumar et al., Lancet Oncol 17(8): e328-46, 2016) and treatment decisions by the investigator were based on these assessments. Clinical response of sCR, CR, VGPR, PR, SD, and PD were determined at each assessment based on local laboratory (and the modified SPEP run by the central laboratory for patients with IgG MM), radiological, and clinical evaluations. Progressive disease was based on IMWG 2016 criteria and/or clinical disease progression per investigator. All IMWG responses were confirmed responses. When applicable, determination of immunophenotypic CR, MRD status, and minimal response were made per the IMWG 2016 criteria.
Kappa and lambda free light chains were quantified in serum of patients as surrogate markers of antitumor activity.
A patient was determined to have an OR if, based on the 2016 IMWG uniform response criteria, they achieve a sCR, CR, VGPR, or a PR. The ORR is defined as the proportion of patients with an OR per investigator. Patients whose disease response could not be evaluated per the 2016 IMWG uniform response criteria were scored as Not Evaluable for calculating the ORR.

NF-κB p65 = NF-κB p65 activity ELISA on nuclear extract; assay type: cell-based; details: NCI-H929, 20 μg/mL SEA-BCMA, 0.2 μM Nirogacestat
Description: The secondary mechanism of action of SEA-BCMA is to block BCMA proliferative cell signaling. Increased BCMA from GSI treatment is expected to induce increased BCMA signaling. Therefore, the block of this enhanced signaling by SEA-BCMA was tested. BCMA-expressing NCI-H929 cells were serum-starved with and without 0.2 μM Nirogacestat (purchased from SelleckChem) for 16 hrs. Cells were then bound with and without 20 μg/mL SEA-BCMA and incubated with and without 1 μg/ml recombinant human APRIL (R&D Systems) for 20 minutes at 37° C. in the presence or absence of 0.2 μM Nirogacestat. 1 μg of nuclear extract was assayed in duplicate for NF-κB p65 activity by ELISA (TransAM NFκB Chemi p65, Active Motif).

[3] = combination with dexamethasone, SEA-BCMA Day 1 and 15, dexamethasone Day 1, 8, 15, 22 of 28-day cycle
[4] = intensive dosing: 1600 mg q1wk for 8 doses, then once every two weeks
[5] = among 20 total patients treated

Q: Which “saturation of membrane BCMA” value ([1]; 1600 mg) does the source give for “SEA-BCMA: non-fucosylated monoclonal anti-BCMA antibody having heavy chain SEQ ID NO: 13 and light chain SEQ ID NO: 15” here?
A: Its value is “complete saturation was observed in at least one patient”.

Q: What about the “unbound membrane BCMA on malignant plasma cells” value ([1]; bone marrow of patients treated in dose escalation) of the same substance?
A: The value was “reduced levels of unbound membrane BCMA”.

Q: What about the “saturation of membrane BCMA” value ([1]; evaluable patients dosed at 800 mg and 1600 mg) of the same substance?
A: Its value is “Incomplete saturation of membrane BCMA”.

Q: What about the “response by dose level” value ([2]; 1600 mg per dose once every 2 weeks vs 100-800 mg) of the same substance?
A: Its value is “highest overall confirmed response rate”.

Q: And the response assessment ([2]; Patient A, 1600 mg every two weeks, 7 prior lines)?
A: The response assessment was “very good partial response (VGPR)”.

Q: And the “time to which low level of sFLC was maintained” value ([2]; Patient A, 1600 mg every two weeks, after the first dose)?
A: Its value is ≥ 40 days.

Q: What about the response ([2]; all dose levels (100-1600 mg), after a minimum of 3 cycles of treatment) of the same substance?
A: Its response is “stable disease was observed”.

Q: What about the “patients with confirmed very good partial response (VGPR)” value ([2]; among 3 response evaluable patients, 1600 mg) of the same substance?
A: Its value is 1 patient.

Q: What about the response [2, 3] of the same substance?
A: Its response is “Confirmed responses were also observed”.

Q: And the response [2, 4]?
A: Its response is “Confirmed responses were also observed”.

Q: What about the “decrease of serum free light chain (sFLC) level” value ([2]; patient (Patient A), one week after first 1600 mg dose) of the same substance?
A: The value was “about 90%”.

Q: And the response ([2]; patient, 200 mg escalated to 1600 mg, 8 prior lines)?
A: The response was “maintaining stable disease even 10 months after commencement of treatment”.

Q: And the “block of Nirogacestat-increased NF-κB signaling” value (NF-κB p65)?
A: Its value is “partially blocked”.

Q: What about the safety (1600 mg per dose once every 2 weeks) of the same substance?
A: The safety was “found to be safe”.

Q: And the safety profile (20 patients, 100-1600 mg)?
A: The safety profile was “well-tolerated with no severe adverse effects”.

Q: And the adverse event (Patient A, 1600 mg every two weeks, second cycle)?
A: The adverse event was “Grade 2 maculopapular rash”.

Q: And the “dose-limiting toxicity (DLT) (Grade 3 infusion-related reactions)” value [5]?
A: Its value is 1 case.

Q: And the “total serious infusion-related reactions” value [5]?
A: The value was 2.

Q: And the safety [3]?
A: Its safety is “found to be safe”.

Q: And the “delayed-onset infusion-related reactions (IRRs)” value (dose escalation cohort)?
A: Its value is “no instances of delayed-onset infusion-related reactions”.

Q: And the “maximum tolerated dose (MTD)” value (human, in vivo)?
A: Its value is “completed without exceeding MTD”.

Q: And the safety [4]?
A: The safety was “intensive dosing was safe”.

Q: What about the safety and tolerability (patient, 200 mg escalated to 1600 mg every two weeks, cycles 1-10) of the same substance?
A: The safety and tolerability was “tolerated the therapy well without any adverse effects related to SEA-BCMA”.
